# Assay results from patent US20180371087A1 (published 2018).
# T1: human LAG-3 (Lymphocyte Activation Gene-3), native or transduced, on the cell surface (UniProt P18627 23-525)
# T1 chain: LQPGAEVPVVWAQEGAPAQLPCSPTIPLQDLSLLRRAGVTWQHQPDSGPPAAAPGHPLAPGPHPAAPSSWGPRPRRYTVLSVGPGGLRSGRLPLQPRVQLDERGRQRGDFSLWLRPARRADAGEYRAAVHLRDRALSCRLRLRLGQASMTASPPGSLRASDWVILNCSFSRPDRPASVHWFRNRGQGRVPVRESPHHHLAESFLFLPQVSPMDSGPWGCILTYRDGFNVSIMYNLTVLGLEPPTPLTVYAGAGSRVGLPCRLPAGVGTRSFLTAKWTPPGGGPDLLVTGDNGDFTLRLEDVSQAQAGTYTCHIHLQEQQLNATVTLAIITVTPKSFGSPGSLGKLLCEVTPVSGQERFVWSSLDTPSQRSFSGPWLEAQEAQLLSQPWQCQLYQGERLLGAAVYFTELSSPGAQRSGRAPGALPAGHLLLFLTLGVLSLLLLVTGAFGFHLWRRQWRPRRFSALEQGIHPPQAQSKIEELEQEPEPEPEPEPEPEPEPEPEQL
# Assays:
# [1] = biological target: T1, human LAG-3 (Lymphocyte Activation …); assay: FACS binding; activated human CD4+ T cells
# D1D4 construct = assay: SPR (Biacore)
binder,measurement,setting,value
"LAG3.7-G4P (antibody, V domains shown) VH: QVQLQQWGAGLLKPSETLSLTCAVYGGSFSDYYWNWIRQPPGKGLEWIGEINHGGGTNSNPSLKSRVTLSLDTSKNQFSLKLRSVTAADTAVYYCAFGYSDYEYNWFDPWGQGTLVTVSS VL: EIVLTQSPATLSLSPGERATLSCRASQSISSYLAWYQQKPGQAPRLLIYDASNRATGIPARFSGSGSGTDFTLTISSLEPEDFAVYYCQQRSNWPLTFGQGTNLEIK",EC50,[1],0.33 nM
"LAG3.8 antibody variant of LAG3.1 (antibody, V domains shown) VH: QVQLQQWGAGLLKPSETLSLTCAVYGGSFSDYYWNWIRQPPGKGLEWIGEINHIGNTNSNPSLKSRVTLSLDTSKNQFSLKLRSVTAADTAVYYCAFGYSDYEYNWFDPWGQGTLVTVSS VL: EIVLTQSPATLSLSPGERATLSCRASQSISSYLAWYQQKPGQAPRLLIYDASNRATGIPARFSGSGSGTDFTLTISSLEPEDFAVYYCQQRSNWPLTFGQGTNLEIKR",EC50,[1],0.19 nM
"LAG3.8 (antibody, V domains shown) VH: QVQLQQWGAGLLKPSETLSLTCAVYGGSFSDYYWNWIRQPPGKGLEWIGEINHIGNTNSNPSLKSRVTLSLDTSKNQFSLKLRSVTAADTAVYYCAFGYSDYEYNWFDPWGQGTLVTVSS VL: EIVLTQSPATLSLSPGERATLSCRASQSISSYLAWYQQKPGQAPRLLIYDASNRATGIPARFSGSGSGTDFTLTISSLEPEDFAVYYCQQRSNWPLTFGQGTNLEIKR",Kd,D1D4 construct,0.3 nM
